Residue numbers refer to the chain shown, from its start. Numbers in names are those of the source.

This note sets out measurements from patent publication US11833164B2, “Methods of treating Fabry disease in patients having a mutation in the GLA gene” (Amicus Therapeutics, Inc., priority 2019, dated 2023).

First the molecules themselves.
B1: E341Q (protein)
chain: MQLRNPELHLGCALALRFLALVSWDIPGARALDNGLARTPTMGWLHWERFMCNLDCQEEPDSCISEKLFMEMAELMVSEGWKDAGYEYLCIDDCWMAPQRDSEGRLQADPQRFPHGIRQLANYVHSKGLKLGIYADVGNKTCAGFPGSFGYYDIDAQTFADWGVDLLKFDGCYCDSLENLADGYKHMSLALNRTGRSIVYSCEWPLYMWPFQKPNYTEIRQYCNHWRNFADIDDSWKSIKSILDWTSFNQERIVDVAGPGGWNDPDMLVIGNFGLSWNQQVTQMALWAIMAAPLFMSNDLRHISPQAKALLQDKDVIAINQDPLGKQGYQLRQGDNFEVWQRPLSGLAWAVAMINRQEIGGPRSYTIAVASLGKGVACNPACFITQLLPVKRKLGFYEWTSRLRSHINPTGTVLLQLENTMQMSLKDLL
B2: W349L (protein)
chain: B1 chain with Q341E, W349L
B3: A350T (protein)
chain: B1 chain with Q341E, A350T
B4: L347I (protein)
chain: B1 chain with Q341E, L347I
B5: L344R (protein)
chain: B1 chain with Q341E, L344R
B6: P343S (protein)
chain: B1 chain with Q341E, P343S
B7: A348D (protein)
chain: B1 chain with Q341E, A348D
B8: G346A (protein)
chain: B1 chain with Q341E, G346A
B9: A350G (protein)
chain: B1 chain with Q341E, A350G
B10: W349C (protein)
chain: B1 chain with Q341E, W349C
B11: A350V (protein)
chain: B1 chain with Q341E, A350V
B12: G346D (protein)
chain: B1 chain with Q341E, G346D
B13: L344V (protein)
chain: B1 chain with Q341E, L344V
B14: P343A (protein)
chain: B1 chain with Q341E, P343A
B15: G346C (protein)
chain: B1 chain with Q341E, G346C
B16: G346V (protein)
chain: B1 chain with Q341E, G346V
B17: A350S (protein)
chain: B1 chain with Q341E, A350S
B18: L344F (protein)
chain: B1 chain with Q341E, L344F

The first assay concerns mutant form of α-Gal A expressed in HEK-293 cells. Kind of assay: HEK assay (GLP HEK / Migalastat Amenability Assay): α-Gal A activity in lysates of transiently transfected HEK-293 cells incubated with or without 10 μM migalastat. Conditions: 10 μM migalastat versus baseline. It is filed as cell-based, human. In outline:
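Activity reported as 4-MU released (nmol/mg/hr), mean±SEM, from lysates of transiently transfected HEK-293 cells expressing mutant α-Gal A, cultured with or without 10 μM migalastat.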
For the molecule B1, the “Absolute increase (% WT)” value amounted to 19.7 % WT and the Relative increase was 1.4.

In the case of B2, the “Absolute increase (% WT)” value was 11.8 % WT and the Relative increase is 1.3.

On to B3, for which the “Absolute increase (% WT)” value came to 14.4 % WT and the Relative increase turned out to be 1.3.

B4: the “Absolute increase (% WT)” value is on record as 17.4 % WT and the Relative increase stood at 1.3.

Turning to B5, the “Absolute increase (% WT)” value is on record as 15.3 % WT and the Relative increase is reported as 2.3.

Regarding B6, the “Absolute increase (% WT)” value is given as 19.0 % WT and the Relative increase is 1.3.

With B7, the “Absolute increase (% WT)” value is 8.4 % WT and the Relative increase worked out at 1.2.

With B8, the “Absolute increase (% WT)” value came out at 22.0 % WT and the Relative increase came to 1.4.

Turning to B9, the “Absolute increase (% WT)” value turned out to be 9.5 % WT and the Relative increase came to 1.2.

B10: the “Absolute increase (% WT)” value was 12.3 % WT and the Relative increase is 1.3.

Turning to B11, the “Absolute increase (% WT)” value worked out at 22.3 % WT and the Relative increase came to 1.8.

On to B12, for which the “Absolute increase (% WT)” value is given as 35.8 % WT and the Relative increase was 1.5.

In the case of B13, the “Absolute increase (% WT)” value amounted to 16.8 % WT and the Relative increase amounted to 1.4.

As for B14, the “Absolute increase (% WT)” value is recorded as 21.2 % WT and the Relative increase is 1.3.

Turning to B15, the “Absolute increase (% WT)” value is recorded as 9.7 % WT and the Relative increase is 1.3.

In the case of B16, the “Absolute increase (% WT)” value was determined as 22.7 % WT and the Relative increase is given as 1.8.

Regarding B17, the “Absolute increase (% WT)” value is on record as 17.6 % WT and the Relative increase came to 1.3.

Take B18: the “Absolute increase (% WT)” value came out at 9.0 % WT and the Relative increase was 16.7.

Staying with this assay, now noted: absence of migalastat; percentage of baseline wild-type α-Gal A activity; mean ± SEM.
B1: the “Baseline α-Gal A activity (% WT)” value was 55.5 ± 3.7 % WT.

For the molecule B2, the “Baseline α-Gal A activity (% WT)” value was found to be 35 ± 1.6 % WT.

Regarding B3, the “Baseline α-Gal A activity (% WT)” value is 47.4 ± 3.7 % WT.

On to B4, for which the “Baseline α-Gal A activity (% WT)” value was found to be 65 ± 3.8 % WT.

Regarding B5, the “Baseline α-Gal A activity (% WT)” value is 10.9 ± 1.4 % WT.

Turning to B6, the “Baseline α-Gal A activity (% WT)” value was 62.1 ± 2.7 % WT.

For B7, the “Baseline α-Gal A activity (% WT)” value is on record as 41.6 ± 1.5 % WT.

Regarding B8, the “Baseline α-Gal A activity (% WT)” value is 58.3 ± 3.3 % WT.

B9: the “Baseline α-Gal A activity (% WT)” value was 41 ± 0.9 % WT.

For B10, the “Baseline α-Gal A activity (% WT)” value is 41.5 ± 2.6 % WT.

Regarding B11, the “Baseline α-Gal A activity (% WT)” value is listed as 27.9 ± 0.9 % WT.

Consider B12, for which the “Baseline α-Gal A activity (% WT)” value was 67.5 ± 6.4 % WT.

B13: the “Baseline α-Gal A activity (% WT)” value was found to be 40.6 ± 3.2 % WT.

Turning to B14, the “Baseline α-Gal A activity (% WT)” value turned out to be 69.5 ± 4.9 % WT.

For the molecule B15, the “Baseline α-Gal A activity (% WT)” value is listed as 39.5 ± 1.9 % WT.

In the case of B16, the “Baseline α-Gal A activity (% WT)” value was 28.8 ± 2.4 % WT.

For B17, the “Baseline α-Gal A activity (% WT)” value turned out to be 62.9 ± 4.2 % WT.

For B18, the “Baseline α-Gal A activity (% WT)” value amounted to 0.6 ± 0.1 % WT.

The assay is the same for the next values; noted with them: lysates of HEK-293 cells transiently transfected with the mutant form, incubated 5 days in absence of migalastat; mean ± SEM.
On to B1, for which the “Baseline α-Gal A activity” value is 20802 ± 2164 nmol/mg/h.

B2: the “Baseline α-Gal A activity” value came to 18128 ± 742 nmol/mg/h.

For B3, the “Baseline α-Gal A activity” value came to 20227 ± 1499 nmol/mg/h.

Take B4: the “Baseline α-Gal A activity” value was found to be 26815 ± 2533 nmol/mg/h.

Regarding B5, the “Baseline α-Gal A activity” value was determined as 4983 ± 848 nmol/mg/h.

Turning to B6, the “Baseline α-Gal A activity” value came to 22132 ± 1243 nmol/mg/h.

In the case of B7, the “Baseline α-Gal A activity” value came to 21682 ± 817 nmol/mg/h.

On to B8, for which the “Baseline α-Gal A activity” value came to 23263 ± 1479 nmol/mg/h.

As for B9, the “Baseline α-Gal A activity” value was found to be 21459 ± 695 nmol/mg/h.

For B10, the “Baseline α-Gal A activity” value was 17800 ± 1182 nmol/mg/h.

For B11, the “Baseline α-Gal A activity” value came out at 12786 ± 654 nmol/mg/h.

As to B12, the “Baseline α-Gal A activity” value stood at 31327 ± 3822 nmol/mg/h.

Consider B13, for which the “Baseline α-Gal A activity” value came to 13586 ± 1026 nmol/mg/h.

Regarding B14, the “Baseline α-Gal A activity” value came to 25254 ± 2385 nmol/mg/h.

For B15, the “Baseline α-Gal A activity” value was determined as 18258 ± 1054 nmol/mg/h.

With B16, the “Baseline α-Gal A activity” value came to 11683 ± 1406 nmol/mg/h.

Consider B17, for which the “Baseline α-Gal A activity” value is 26493 ± 1291 nmol/mg/h.

For the molecule B18, the “Baseline α-Gal A activity” value was determined as 217 ± 25 nmol/mg/h.

The same assay, now with this note: lysates of HEK-293 cells transiently transfected with the mutant form, incubated 5 days with 10 μM migalastat; mean ± SEM.
As to B1, the “10 μM migalastat α-Gal A activity” value turned out to be 28411 ± 2891 nmol/mg/h.

Turning to B2, the “10 μM migalastat α-Gal A activity” value is 24184 ± 1517 nmol/mg/h.

For the molecule B3, the “10 μM migalastat α-Gal A activity” value is 26484 ± 1189 nmol/mg/h.

For the molecule B4, the “10 μM migalastat α-Gal A activity” value is 33517 ± 2802 nmol/mg/h.

As for B5, the “10 μM migalastat α-Gal A activity” value came to 11592 ± 1593 nmol/mg/h.

As to B6, the “10 μM migalastat α-Gal A activity” value is 29289 ± 2351 nmol/mg/h.

Consider B7, for which the “10 μM migalastat α-Gal A activity” value was determined as 26025 ± 1129 nmol/mg/h.

For B8, the “10 μM migalastat α-Gal A activity” value worked out at 31948 ± 1306 nmol/mg/h.

On to B9, for which the “10 μM migalastat α-Gal A activity” value turned out to be 26360 ± 1002 nmol/mg/h.

Consider B10, for which the “10 μM migalastat α-Gal A activity” value was determined as 23210 ± 1299 nmol/mg/h.

B11: the “10 μM migalastat α-Gal A activity” value came to 22855 ± 1012 nmol/mg/h.

On to B12, for which the “10 μM migalastat α-Gal A activity” value came out at 46560 ± 3904 nmol/mg/h.

As to B13, the “10 μM migalastat α-Gal A activity” value is 19262 ± 903 nmol/mg/h.

As to B14, the “10 μM migalastat α-Gal A activity” value was 32890 ± 2292 nmol/mg/h.

For B15, the “10 μM migalastat α-Gal A activity” value amounted to 22856 ± 1772 nmol/mg/h.

Consider B16, for which the “10 μM migalastat α-Gal A activity” value is 20902 ± 2356 nmol/mg/h.

On to B17, for which the “10 μM migalastat α-Gal A activity” value is 34474 ± 1484 nmol/mg/h.

Turning to B18, the “10 μM migalastat α-Gal A activity” value amounted to 3629 ± 614 nmol/mg/h.

Still in this assay, the particulars now being: with 10 μM migalastat, 5 days; percentage of baseline wild-type α-Gal A activity; mean ± SEM.
For B1, the “10 μM migalastat α-Gal A activity (% WT)” value amounted to 75.2 ± 4.1 % WT.

With B2, the “10 μM migalastat α-Gal A activity (% WT)” value is given as 46.8 ± 3.2 % WT.

For the molecule B3, the “10 μM migalastat α-Gal A activity (% WT)” value is on record as 61.7 ± 2.7 % WT.

Regarding B4, the “10 μM migalastat α-Gal A activity (% WT)” value is 82.4 ± 5 % WT.

Regarding B5, the “10 μM migalastat α-Gal A activity (% WT)” value was 26.2 ± 2.6 % WT.

As to B6, the “10 μM migalastat α-Gal A activity (% WT)” value is 81.1 ± 4.6 % WT.

On to B7, for which the “10 μM migalastat α-Gal A activity (% WT)” value is recorded as 50 ± 2.2 % WT.

As to B8, the “10 μM migalastat α-Gal A activity (% WT)” value came to 80.4 ± 2.8 % WT.

For B9, the “10 μM migalastat α-Gal A activity (% WT)” value is recorded as 50.5 ± 1.7 % WT.

With B10, the “10 μM migalastat α-Gal A activity (% WT)” value amounted to 53.7 ± 2.5 % WT.

In the case of B11, the “10 μM migalastat α-Gal A activity (% WT)” value was 50.2 ± 1.6 % WT.

In the case of B12, the “10 μM migalastat α-Gal A activity (% WT)” value was 103.3 ± 6 % WT.

B13: the “10 μM migalastat α-Gal A activity (% WT)” value was found to be 57.5 ± 2.5 % WT.

With B14, the “10 μM migalastat α-Gal A activity (% WT)” value was found to be 90.7 ± 3.7 % WT.

As to B15, the “10 μM migalastat α-Gal A activity (% WT)” value is listed as 49.2 ± 2.9 % WT.

Regarding B16, the “10 μM migalastat α-Gal A activity (% WT)” value was found to be 51.4 ± 3.9 % WT.

On to B17, for which the “10 μM migalastat α-Gal A activity (% WT)” value came out at 80.5 ± 3.6 % WT.

In the case of B18, the “10 μM migalastat α-Gal A activity (% WT)” value came out at 9.6 ± 1.4 % WT.
